Laboratory results published in publication PMC6155126.

Tests used:
[1] = target: Ku70/80 (Ku70 subunit);Ku70/80 (Ku80 subunit);Pol λ WT (Homo sapiens;Homo sapiens;Homo sapiens, UniProt P12956;P13010;Q9UGP5 1-609;1-732;1-575, ||); experiment: EMSA supershift; 20 nM Ku; EMSA: 50 mM Tris-HCl pH 7.5, 100 mM KCl, 2.5 mM MgCl2, 1 mM DTT, 4% glycerol, 0.05% Triton X-100, 0.1 mg/ml BSA, 10-20 nM DNA, 30 min at 25 °C; 4-5% native PAGE, 0.5x TBE, 4 °C; settings: protein: recombinant;recombinant;recombinant; tags: FLAG;FLAG;FLAG; copies: 1;1;1; label: 5' IRDye 700 on one strand; 5-nt gap
[2] = target: Ku70/80 (Ku70 subunit);Ku70/80 (Ku80 subunit);PAXX (cleaved) (Homo sapiens;Homo sapiens;Homo sapiens, UniProt P12956;P13010;Q9BUH6 1-609;1-732;1-204, ||); experiment: EMSA supershift; 20 nM Ku, 0.5 µM PAXX; EMSA: 50 mM Tris-HCl pH 7.5, 100 mM KCl, 2.5 mM MgCl2, 1 mM DTT, 4% glycerol, 0.05% Triton X-100, 0.1 mg/ml BSA, 10-20 nM DNA, 30 min at 25 °C; 4-5% native PAGE, 0.5x TBE, 4 °C; settings: protein: recombinant;recombinant;recombinant; tags: FLAG;FLAG;GST tag cleaved (PreScission); copies: 1;1;2; label: 5' IRDye 700 on one strand; 5-nt gap
[3] = target: Ku70/80 (Ku70 subunit);Ku70/80 (Ku80 subunit);Pol λ WT;PAXX (cleaved) (Homo sapiens;Homo sapiens;Homo …, UniProt P12956;P13010;Q9UGP5;Q9BUH6 1-609;1-732;1-575;1-204, |||); experiment: as above; settings: protein: recombinant;recombinant;recombinant;recombinant; tags: FLAG;FLAG;FLAG;GST tag cleaved (PreScission); copies: 1;1;1;2; label: 5' IRDye 700 on one strand; 5-nt gap
[4] = target: Ku70/80 (Ku70 subunit);Ku70/80 (Ku80 subunit);Pol λ R57A/L60A (RL) (Homo sapiens;Homo sapiens;Homo sapiens, UniProt P12956;P13010;Q9UGP5 1-609;1-732;1-575, ||R57A;L60A); experiment: EMSA supershift; 20 nM Ku, 50 nM Pol λ-RL; mutant does not join DNA-bound Ku; EMSA: 50 mM Tris-HCl pH 7.5, 100 mM KCl, 2.5 mM MgCl2, 1 mM DTT, 4% glycerol, 0.05% Triton X-100, 0.1 mg/ml BSA, 10-20 nM DNA, 30 min at 25 °C; 4-5% native PAGE, 0.5x TBE, 4 °C; settings: protein: recombinant;recombinant;recombinant, tags: FLAG;FLAG;FLAG, copies: 1;1;1, label: IRDye 700 at 5' end of S5, 5-nt gap (CTATT of S4 unpaired), blunt outer ends
Ku70/80 (Ku70 subunit);Ku70/80 (Ku80 subunit);Pol λ R57A/L60A (RL), sequence (P12956 whole entry, chain 1 of 3): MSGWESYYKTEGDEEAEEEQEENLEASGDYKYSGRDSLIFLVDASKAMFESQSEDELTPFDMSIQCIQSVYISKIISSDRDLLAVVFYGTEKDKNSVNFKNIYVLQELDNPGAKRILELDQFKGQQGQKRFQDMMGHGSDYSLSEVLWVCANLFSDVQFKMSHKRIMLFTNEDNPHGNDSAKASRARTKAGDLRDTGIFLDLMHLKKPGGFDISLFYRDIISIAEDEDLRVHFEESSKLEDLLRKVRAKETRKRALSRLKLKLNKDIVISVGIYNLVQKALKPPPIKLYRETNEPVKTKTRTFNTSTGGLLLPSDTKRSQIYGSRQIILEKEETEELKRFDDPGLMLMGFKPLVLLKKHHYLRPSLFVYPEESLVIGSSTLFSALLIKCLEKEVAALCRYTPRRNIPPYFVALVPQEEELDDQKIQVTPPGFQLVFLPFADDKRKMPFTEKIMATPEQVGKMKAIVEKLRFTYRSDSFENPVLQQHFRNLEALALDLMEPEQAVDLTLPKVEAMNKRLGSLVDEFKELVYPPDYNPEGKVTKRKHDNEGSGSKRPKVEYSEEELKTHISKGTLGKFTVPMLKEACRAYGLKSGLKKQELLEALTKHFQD
Ku70/80 (Ku70 subunit);Ku70/80 (Ku80 subunit);Pol λ R57A/L60A (RL), sequence (P13010 whole entry, chain 2 of 3): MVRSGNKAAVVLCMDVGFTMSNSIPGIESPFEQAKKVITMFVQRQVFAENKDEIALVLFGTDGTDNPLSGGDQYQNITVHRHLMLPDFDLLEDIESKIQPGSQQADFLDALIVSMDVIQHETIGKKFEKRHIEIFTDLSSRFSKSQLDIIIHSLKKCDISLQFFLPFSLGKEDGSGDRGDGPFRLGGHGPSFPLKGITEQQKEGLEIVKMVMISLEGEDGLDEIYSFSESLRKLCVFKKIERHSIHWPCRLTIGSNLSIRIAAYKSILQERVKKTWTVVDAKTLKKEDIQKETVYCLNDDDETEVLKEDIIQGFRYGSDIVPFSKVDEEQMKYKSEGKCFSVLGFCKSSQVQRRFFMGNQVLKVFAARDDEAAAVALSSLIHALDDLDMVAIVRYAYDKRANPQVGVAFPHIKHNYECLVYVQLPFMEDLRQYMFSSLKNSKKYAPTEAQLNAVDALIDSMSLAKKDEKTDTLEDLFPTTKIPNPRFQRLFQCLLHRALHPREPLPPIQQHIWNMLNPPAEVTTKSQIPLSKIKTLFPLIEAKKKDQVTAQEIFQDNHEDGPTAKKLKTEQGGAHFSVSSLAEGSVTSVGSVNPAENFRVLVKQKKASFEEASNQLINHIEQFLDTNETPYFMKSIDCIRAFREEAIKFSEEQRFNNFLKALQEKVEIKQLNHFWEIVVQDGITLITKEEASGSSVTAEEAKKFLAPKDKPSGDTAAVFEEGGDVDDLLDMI
Ku70/80 (Ku70 subunit);Ku70/80 (Ku80 subunit);Pol λ R57A/L60A (RL), sequence (Q9UGP5 whole entry R57A/L60A, chain 3 of 3): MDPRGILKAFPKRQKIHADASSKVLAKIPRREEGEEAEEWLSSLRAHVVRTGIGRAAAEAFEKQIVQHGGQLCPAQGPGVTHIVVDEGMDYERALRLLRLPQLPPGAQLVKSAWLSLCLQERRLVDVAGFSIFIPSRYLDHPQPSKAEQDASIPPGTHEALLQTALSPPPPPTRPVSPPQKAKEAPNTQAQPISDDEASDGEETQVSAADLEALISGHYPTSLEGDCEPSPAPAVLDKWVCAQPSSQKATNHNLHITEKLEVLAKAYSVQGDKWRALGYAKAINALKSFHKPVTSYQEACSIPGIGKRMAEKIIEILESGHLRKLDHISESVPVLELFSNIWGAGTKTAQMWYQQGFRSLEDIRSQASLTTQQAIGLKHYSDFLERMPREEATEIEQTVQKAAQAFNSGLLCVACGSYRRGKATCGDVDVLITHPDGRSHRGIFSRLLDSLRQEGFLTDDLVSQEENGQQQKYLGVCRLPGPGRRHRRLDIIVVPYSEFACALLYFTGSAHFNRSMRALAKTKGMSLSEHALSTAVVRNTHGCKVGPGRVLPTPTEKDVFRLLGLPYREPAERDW

Ku70/80 (Ku70 subunit);Ku70/80 (Ku80 subunit);Pol λ WT, sequence (P12956 whole entry, chain 1 of 3): as the sequence (P12956 whole entry, chain 1 of 3) above
Ku70/80 (Ku70 subunit);Ku70/80 (Ku80 subunit);Pol λ WT, sequence (P13010 whole entry, chain 2 of 3): as the sequence (P13010 whole entry, chain 2 of 3) above
Ku70/80 (Ku70 subunit);Ku70/80 (Ku80 subunit);Pol λ WT, sequence (Q9UGP5 whole entry, chain 3 of 3): as the sequence (Q9UGP5 whole entry R57A/L60A, chain 3 of 3) above, with A57R, A60L counted along it

B1: 5nt-gapped dsDNA 30-mer (dsDNA)
DNA 1: ACTGGCCGTCGTTCTATTGTACTCACTGTGATC
DNA 2: GATCACAGTGAGTAC
DNA 3: AACGACGGCCAGT
- binding result [1]: binds
- binding result [2]: binds
- binding result [3]: binds

B2: 5nt-gapped dsDNA 33-mer (dsDNA)
DNA 1: ACTGGCCGTCGTTCTATTGTACTCACTGTGATC
DNA 2: GATCACAGTGAGTAC
DNA 3: AACGACGGCCAGT
modifications: 5'-phosphate on the 13-mer
- binding result [4]: no binding
